Results reported in US20200085789A1, “USE OF A PROTEASOME INHIBITOR FOR THE TREATMENT OF CENTRAL NERVOUS SYSTEM (CNS) CANCERS” (Celgene International II Sàrl, priority 2017, published 2020).
Like-named read-outs stand apart in the source and are kept apart here.

Columns and labels:
[1] = in vivo; cited from earlier work
[2] = Day 0, 10 mg/kg dose (Gordon et al., 2001); cited from earlier work
[3] = system: WHO Grade IV malignant glioma; details: cited from earlier work
[4] = Bevacizumab serum pharmacokinetics, peak and trough (Part 1 Phase 1); assay type: in vivo, human; details: for Cmax D 1: C1D1; for Cmax D 15 / Cmin D 15: C1D15
Description: The drugs were infused on 28-Day Cycles.

[5] = Adverse events and dose-limiting toxicity (NCI-CTCAE v 4.03), MRZ ± BEV in recurrent grade IV malignant glioma patients; assay type: in vivo, human
Description: An adverse event (AE) is any noxious, unintended, or untoward medical occurrence that may appear or worsen in a subject during the course of a study. […] Any worsening (i.e., any clinically significant adverse change in the frequency or intensity of a pre-existing condition) should be considered an AE.
The severity/intensity of AEs will be graded based upon the subject's symptoms according to the current active minor version of the Common Terminology Criteria for Adverse Events ( ).

[6] = Heiland (Freiburg, Germany), All Pts
[7] = Heiland (Freiburg, Germany), Methylated
[8] = Heiland (Freiburg, Germany), Unmethylated
[9] = Wick (EORTC 26101 P2), Methylated
[10] = Wick (EORTC 26101 P2), Unmethylated
[11] = MRZ 0.7 mg/m^2 + BEV, Cohort 2 (N = 3)
[12] = MRZ 0.8 mg/m^2 + BEV, Cohorts 3 & 4 (N = 27)
[13] = treated with MRZ 0.8 mg/m^2 + BEV (N = 27)

## CC(C)C[C@H](NC(=O)[C@H](Cc1ccccc1)NC(=O)c1cnccn1)B(O)O [BTZ, bortezomib, reference compound]
[1]
  crossing of the blood brain barrier: does not cross the blood brain barrier

## bevacizumab [reference compound]
[2]
  Cmax: 284 µg/mL
[3]; Field (CABARET), All Pts
  6 mo Overall Survival: 61%
  6 mo Progression Free Survival: 18%
  9 mo Overall Survival: 39%
  9 mo Progression Free Survival: 6%
  12 Mo. Overall Survival: 24%
[3]; [6]
  6 mo Overall Survival: 18%
  9 mo Overall Survival: 30%
  9 mo Progression Free Survival: 0%
  12 Mo. Overall Survival: 10%
  12 Mo. Progression Free Survival: 0%
[3]; [7]
  6 mo Overall Survival: 58%
  6 mo Progression Free Survival: 38%
  9 mo Overall Survival: 40%
  9 mo Progression Free Survival: 22%
  12 Mo. Overall Survival: 24%
  12 Mo. Progression Free Survival: 10%
[3]; [8]
  6 mo Overall Survival: 25%
  6 mo Progression Free Survival: 10%
  9 mo Progression Free Survival: 0%
  12 Mo. Progression Free Survival: 0%
[3]; Taal (BELOB), All Pts
  6 mo Overall Survival: 62%
  6 mo Progression Free Survival: 16%
  9 mo Overall Survival: 45%
  9 mo Progression Free Survival: 8%
  12 Mo. Overall Survival: 26%
[3]; Taal (BELOB), Methylated
  6 mo Overall Survival: 83%
  6 mo Progression Free Survival: 33%
  9 mo Overall Survival: 67%
  9 mo Progression Free Survival: 22%
  12 Mo. Overall Survival: 56%
[3]; Taal (BELOB), Unmethylated
  6 mo Overall Survival: 50%
  6 mo Progression Free Survival: 8%
  9 mo Progression Free Survival: 0%
  12 Mo. Overall Survival: 8%
  12 Mo. Progression Free Survival: 0%
[3]; Wick (EORTC 26101 P2), All Pts
  6 mo Progression Free Survival: 14%
  9 mo Progression Free Survival: 9%
  12 Mo. Progression Free Survival: 8%
[3]; [9]
  6 mo Progression Free Survival: 25%
  9 mo Progression Free Survival: 9%
  12 Mo. Progression Free Survival: 9%
[3]; [10]
  6 mo Progression Free Survival: 10%
  9 mo Progression Free Survival: 10%
  12 Mo. Progression Free Survival: 10%
[3]; recurrent G4 MG, BEV alone
  6-month progression-free survival (PFS) rate: ~43%
  median overall survival (OS): ~9 months
[4]; Day 15
  mean Cmin: 95 µg/mL
[4]; MRZ 0.7 mg/m^2 cohort
  Cmax D 1: 193 ± 8 (2) μg/mL
  Cmax D 15: 402 ± 123 (3) μg/mL
  Cmin D 15: 81.1 ± 17.4 (2) μg/mL
[4]; MRZ 0.8 mg/m^2 cohort
  Cmax D 1: 267 ± 13.3 (3) μg/mL
  Cmax D 15: 380 ± 56.5 (2) μg/mL
  Cmin D 15: 85.0 ± 9.87 (3) μg/mL
[4]; all dose cohorts, Day 1, 10 mg/kg
  mean Cmax: 275 µg/mL
[4]; co-administration with marizomib
  pharmacokinetic parameters: consistent with published parameters and not affected by co-administration
[4]; second value printed for Day 1
  mean Cmax: 379 µg/mL
[5]; [11]
  Grade ≥3 Ataxia related to the labelled drug, patients: 0
  Grade ≥3 Confusional State related to the labelled drug, patients: 0
  Grade ≥3 Delusion related to the labelled drug, patients: 0
  Grade ≥3 Dyspnea related to the labelled drug, patients: 0
  Grade ≥3 Embolism related to the labelled drug, patients: 0
  Grade ≥3 Fall related to the labelled drug, patients: 0
  Grade ≥3 Fatigue related to the labelled drug, patients: 0
  Grade ≥3 Hallucination related to the labelled drug, patients: 0
  Grade ≥3 Headache related to the labelled drug, patients: 0
  Grade ≥3 Hypertension related to the labelled drug, patients: 1
  Grade ≥3 Hyponatremia related to the labelled drug, patients: 0
  Grade ≥3 Insomnia related to the labelled drug, patients: 0
  Grade ≥3 Intracranial Hemorrhage related to the labelled drug, patients: 0
  Grade ≥3 Optic Nerve Disorder related to the labelled drug, patients: 0
  Grade ≥3 Proteinuria related to the labelled drug, patients: 1
[5]; [12]
  Grade ≥3 Ataxia related to the labelled drug, patients: 0
  Grade ≥3 Confusional State related to the labelled drug, patients: 0
  Grade ≥3 Delusion related to the labelled drug, patients: 0
  Grade ≥3 Dyspnea related to the labelled drug, patients: 1
  Grade ≥3 Embolism related to the labelled drug, patients: 1
  Grade ≥3 Fall related to the labelled drug, patients: 0
  Grade ≥3 Fatigue related to the labelled drug, patients: 1
  Grade ≥3 Hallucination related to the labelled drug, patients: 0
  Grade ≥3 Headache related to the labelled drug, patients: 1
  Grade ≥3 Hypertension related to the labelled drug, patients: 5
  Grade ≥3 Hyponatremia related to the labelled drug, patients: 0
  Grade ≥3 Insomnia related to the labelled drug, patients: 0
  Grade ≥3 Intracranial Hemorrhage related to the labelled drug, patients: 1
  Grade ≥3 Optic Nerve Disorder related to the labelled drug, patients: 1
  Grade ≥3 Proteinuria related to the labelled drug, patients: 0
[5]; pts on MRZ+BEV
  Anaemia: # Patients, AE related to the labelled drug(s): 0
  Anxiety: # Patients, AE related to the labelled drug(s): 0
  Aphasia: # Patients, AE related to the labelled drug(s): 0
  Appendicitis Perforated: # Patients, AE related to the labelled drug(s): 0
  Asthenia: # Patients, AE related to the labelled drug(s): 0
  Ataxia: # Patients, AE related to the labelled drug(s): 0
  Confusional State: # Patients, AE related to the labelled drug(s): 0
  Constipation: # Patients, AE related to the labelled drug(s): 0
  Convulsion: # Patients, AE related to the labelled drug(s): 0
  Delusion: # Patients, AE related to the labelled drug(s): 0
  Depressed Level of Consciousness: # Patients, AE related to the labelled drug(s): 0
  Diarrhoea: # Patients, AE related to the labelled drug(s): 0
  Dizziness: # Patients, AE related to the labelled drug(s): 0
  Dysarthria: # Patients, AE related to the labelled drug(s): 0
  Dysphagia: # Patients, AE related to the labelled drug(s): 0
  Dysphonia: # Patients, AE related to the labelled drug(s): 10
  Dyspnoea: # Patients, AE related to the labelled drug(s): 0
  Ear Infection: # Patients, AE related to the labelled drug(s): 0
  Epistaxis: # Patients, AE related to the labelled drug(s): 7
  Falls: # Patients, AE related to the labelled drug(s): 0
  Fatigue: # Patients, AE related to the labelled drug(s): 0
  Fracture of Femur: # Patients, AE related to the labelled drug(s): 0
  Hallucination: # Patients, AE related to the labelled drug(s): 0
  Headache: # Patients, AE related to the labelled drug(s): 1
  Hemiparesis: # Patients, AE related to the labelled drug(s): 0
  Hyperglycemia: # Patients, AE related to the labelled drug(s): 0
  Hypertension: # Patients, AE related to the labelled drug(s): 13
  Hypokalemia: # Patients, AE related to the labelled drug(s): 0
  Hyponatremia: # Patients, AE related to the labelled drug(s): 0
  Hypotension: # Patients, AE related to the labelled drug(s): 0
  Infusion Site Pain: # Patients, AE related to the labelled drug(s): 0
  Insomnia: # Patients, AE related to the labelled drug(s): 1
  Lymphocyte Count Decreased: # Patients, AE related to the labelled drug(s): 0
  Muscular Weakness: # Patients, AE related to the labelled drug(s): 0
  Nausea: # Patients, AE related to the labelled drug(s): 0
  Optic Nerve Disorder: # Patients, AE related to the labelled drug(s): 1
  Pyramidal Tract Syndrome: # Patients, AE related to the labelled drug(s): 0
  Tumor Metastasis: # Patients, AE related to the labelled drug(s): 0
  Vision Blurred: # Patients, AE related to the labelled drug(s): 0
  Vomiting: # Patients, AE related to the labelled drug(s): 0
[5]; [13]
  Anaemia related to the labelled drug(s): (0.0%)
  Anaemia related to the labelled drug(s), patients: 0
  Ataxia related to the labelled drug(s): (0.0%)
  Ataxia related to the labelled drug(s), patients: 0
  Confusional state related to the labelled drug(s): (3.7%)
  Confusional state related to the labelled drug(s), patients: 1
  Constipation related to the labelled drug(s): (3.7%)
  Constipation related to the labelled drug(s), patients: 1
  Diarrhoea related to the labelled drug(s): (3.7%)
  Diarrhoea related to the labelled drug(s), patients: 1
  Dizziness related to the labelled drug(s): (3.7%)
  Dizziness related to the labelled drug(s), patients: 1
  Dysphonia related to the labelled drug(s): (37.0%)
  Dysphonia related to the labelled drug(s), patients: 10
  Epistaxis related to the labelled drug(s): (25.9%)
  Epistaxis related to the labelled drug(s), patients: 7
  Fall related to the labelled drug(s): (0.0%)
  Fall related to the labelled drug(s), patients: 0
  Fatigue related to the labelled drug(s): (66.7%)
  Fatigue related to the labelled drug(s), patients: 18
  Hallucination related to the labelled drug(s): (0.0%)
  Hallucination related to the labelled drug(s), patients: 0
  Headache related to the labelled drug(s): (22.2%)
  Headache related to the labelled drug(s), patients: 6
  Hypertension related to the labelled drug(s): (40.7%)
  Infusion site pain related to the labelled drug(s): (3.7%)
  Infusion site pain related to the labelled drug(s), patients: 1
  Muscular weakness related to the labelled drug(s): (3.7%)
  Muscular weakness related to the labelled drug(s), patients: 1
  Nausea related to the labelled drug(s): (7.4%)
  Platelet count decreased related to the labelled drug(s): (11.1%)
  Platelet count decreased related to the labelled drug(s), patients: 3
  Stomatitis related to the labelled drug(s): (7.4%)
  Upper-airway cough syndrome related to the labelled drug(s): (18.5%)
  Upper-airway cough syndrome related to the labelled drug(s), patients: 5
  Vomiting related to the labelled drug(s): (14.8%)
